Test results reported in the supplement of paper PMC6757056.
± gives the standard deviation of the averaged measurements.

B1: library; a variant is named by its letters at N, in order (parent)
chain: GCUGUCACCGGAAUACCAGCAUCGUCUUGAUGCCCUUGGAAGUCCGGUCUGAUGAGUCCNNNNNGGACGAAACAGC

Columns and labels:
theophylline [1] = variants of: B1; experiment: FACS-Seq fitted mean relative fluorescence mCherry/BFP without ligand (log10 relative fluorescence); higher = higher reporter protein expression; conditions: HEK293T, ligand present: no
In short: (§1)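 An mCherry reporter containing the ribozyme switch and an EF1α-BFP marker were introduced by lentivirus into HEK293T libraries. Cells were enriched, incubated 48 h with or without ligand, sorted into 6 bins by mCherry/BFP, and bin genomic DNA was PCR-amplified, barcoded and sequenced on MiSeq. Fluorescence represents the normalized fitted normal mean of the bin counts. Fitting was done on log10(mCherry/BFP), scaling to five spiked-in control ribozymes.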

theophylline [2] = variants of: B1; experiment: normalized RNA/DNA level with ligand (relative to sTRSVctl = 100) (log10 (% of sTRSVctl)); higher = less ribozyme self-cleavage, higher mRNA level; conditions: ligand concentration (+) RNA-Seq: 5 mM, HEK293T, reporter: mCherry (pCS4076), ligand present: yes
In short: (§2)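 Ribozyme switch library plasmids linked to reporters were introduced into HEK293T cells at 4 µg per 6-well well, with ligand, if any, added 1 h before. Total RNA was extracted with EDTA 72 h later, reverse-transcribed, amplified, barcoded and sequenced. RNA level was computed from RNA over DNA reads relative to a spiked-in non-cleaving sequence or the top sequences, then scaled and log-transformed. The top set was 25 sequences, values were ×100 and log10, and the cutoff was ≥100 DNA reads.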

theophylline [3] = variants of: B1; experiment: normalized RNA/DNA level without ligand (relative to sTRSVctl = 100) (log10 (% of sTRSVctl)); higher = less ribozyme self-cleavage, higher mRNA level; conditions: HEK293T, reporter: mCherry (pCS4076), ligand present: no
In short: as §2

theophylline [4] = variants of: B1; experiment: FACS-Seq fitted mean relative fluorescence mCherry/BFP with ligand (log10 relative fluorescence); ligand concentration (+) FACS-Seq: 1 mM; higher = higher reporter protein expression; conditions: HEK293T, ligand present: yes
In short: as §1

Row | Variant | FACS-Seq fitted mean (log10) (theophylline [1]) | normalized RNA/DNA level with ligand (log10) (theophylline [2]) | normalized RNA/DNA level without ligand (log10) (theophylline [3]) | FACS-Seq fitted mean (log10) (theophylline [4])
1 | GCUGUCACCGGAAUACCAGCAUCGUCUUGAUGCCCUUGGAAGUCCGGUCUGAUGAGUCCAUAUUGGACGAAACAGC [AUAUU] | 0.891 ± 0.015 | 2.05 ± 0.067 | 1.91 ± 0.024 | 0.928 ± 0.12
2 | GCUGUCACCGGAAUACCAGCAUCGUCUUGAUGCCCUUGGAAGUCCGGUCUGAUGAGUCCAGUAGGGACGAAACAGC [AGUAG] | 0.85 ± 0.075 | 1.97 ± 0.1 | 1.71 ± 0.034 | 0.8838 ± 0.0022
3 | GCUGUCACCGGAAUACCAGCAUCGUCUUGAUGCCCUUGGAAGUCCGGUCUGAUGAGUCCCACGAGGACGAAACAGC [CACGA] | 0.805 ± 0.037 | 1.998 ± 0.0074 | 1.76 ± 0.036 | 0.917 ± 0.012
4 | GCUGUCACCGGAAUACCAGCAUCGUCUUGAUGCCCUUGGAAGUCCGGUCUGAUGAGUCCAAAUCGGACGAAACAGC [AAAUC] | 0.4981 ± 0.0025 | 1.89 ± 0.034 | 1.9 ± 0.099 | 0.511 ± 0.021
5 | GCUGUCACCGGAAUACCAGCAUCGUCUUGAUGCCCUUGGAAGUCCGGUCUGAUGAGUCCUGAUCGGACGAAACAGC [UGAUC] | 0.156 ± 0.012 | 1.88 ± 0.045 | 1.91 ± 0.099 | 0.331 ± 0.012
6 | GCUGUCACCGGAAUACCAGCAUCGUCUUGAUGCCCUUGGAAGUCCGGUCUGAUGAGUCCCAUAAGGACGAAACAGC [CAUAA] | -0.291 ± 0.12 | 1.88 ± 0.0023 | 1.06 ± 0.47 | 0.446 ± 0.011
7 | GCUGUCACCGGAAUACCAGCAUCGUCUUGAUGCCCUUGGAAGUCCGGUCUGAUGAGUCCUUUCCGGACGAAACAGC [UUUCC] | 1.01 ± 0.062 | 1.99 ± 0.028 | 1.97 ± 0.04 | 0.9258 ± 0.0036
8 | GCUGUCACCGGAAUACCAGCAUCGUCUUGAUGCCCUUGGAAGUCCGGUCUGAUGAGUCCCCUCUGGACGAAACAGC [CCUCU] | 0.198 ± 0.07 | 1.93 ± 0.039 | 1.87 ± 0.036 | 0.0585 ± 0.1
9 | GCUGUCACCGGAAUACCAGCAUCGUCUUGAUGCCCUUGGAAGUCCGGUCUGAUGAGUCCAACUAGGACGAAACAGC [AACUA] | 0.84 ± 0.078 | 2.01 ± 0.045 | 1.77 ± 0.053 | 1 ± 0.015
10 | GCUGUCACCGGAAUACCAGCAUCGUCUUGAUGCCCUUGGAAGUCCGGUCUGAUGAGUCCCACAUGGACGAAACAGC [CACAU] | 0.589 ± 0.032 | 1.964 ± 0.0051 | 1.68 ± 0.099 | 0.693 ± 0.025
11 | GCUGUCACCGGAAUACCAGCAUCGUCUUGAUGCCCUUGGAAGUCCGGUCUGAUGAGUCCAAAGCGGACGAAACAGC [AAAGC] | 1.03 ± 0.054 | 2.03 ± 0.041 | 1.79 ± 0.043 | 1.04 ± 0.14
12 | GCUGUCACCGGAAUACCAGCAUCGUCUUGAUGCCCUUGGAAGUCCGGUCUGAUGAGUCCUGCUUGGACGAAACAGC [UGCUU] | 0.84 ± 0.14 | 1.99 ± 0.079 | 1.95 ± 0.054 | 0.851 ± 0.037
13 | GCUGUCACCGGAAUACCAGCAUCGUCUUGAUGCCCUUGGAAGUCCGGUCUGAUGAGUCCUCUCCGGACGAAACAGC [UCUCC] | 0.732 ± 0.037 | 1.93 ± 0.04 | 1.95 ± 0.023 | 0.7862 ± 0.0054
14 | GCUGUCACCGGAAUACCAGCAUCGUCUUGAUGCCCUUGGAAGUCCGGUCUGAUGAGUCCGAUAUGGACGAAACAGC [GAUAU] | 0.781 ± 0.093 | 1.946 ± 0.0078 | 1.75 ± 0.039 | 0.8102 ± 0.0061
15 | GCUGUCACCGGAAUACCAGCAUCGUCUUGAUGCCCUUGGAAGUCCGGUCUGAUGAGUCCCUCACGGACGAAACAGC [CUCAC] | 1.14 ± 0.019 | 2.02 ± 0.075 | 2.02 ± 0.13 | 1.12 ± 0.075
16 | GCUGUCACCGGAAUACCAGCAUCGUCUUGAUGCCCUUGGAAGUCCGGUCUGAUGAGUCCCUCUAGGACGAAACAGC [CUCUA] | 0.786 ± 0.075 | 2.05 ± 0.018 | 1.78 ± 0.063 | 0.994 ± 0.09
17 | GCUGUCACCGGAAUACCAGCAUCGUCUUGAUGCCCUUGGAAGUCCGGUCUGAUGAGUCCCUAUUGGACGAAACAGC [CUAUU] | 0.965 ± 0.18 | 2.03 ± 0.023 | 1.85 ± 0.1 | 0.924 ± 0.012
18 | GCUGUCACCGGAAUACCAGCAUCGUCUUGAUGCCCUUGGAAGUCCGGUCUGAUGAGUCCUUUUUGGACGAAACAGC [UUUUU] | 0.93 ± 0.071 | 2.01 ± 0.027 | 1.95 ± 0.15 | 0.991 ± 0.017
